# Target: adaptor protein-2 (AP-2)
# Assay: pull-down (IP with AP-2 antibody, western blot densitometry)
# Settings: HEK-293 cells transfected with GFP-V0a1 constructs; n=4; parent: est. 1.0; read off a plot
substance,measurement,value
WT GFP-V0a1 (from UniProt Q93050) C25S,ratio to parent (arbitrary unit),0.37

# From publication PMC5344305
